One block for each molecule: values may come before it.
What was measured:
[1] = target: Human BMP4 (R&D Systems cat#314-BP) (human) (UniProt P12644); assay: cell-based or functional assay
[2] = target: T1, huCHRDL-1-DEVD-6xHis (human, UniProt Q9BU40 28-456); assay: KinExA, solution equilibrium, huCHRDL-1-coated beads
T1 construct: also called Human CHRDL-1
T1 sequence: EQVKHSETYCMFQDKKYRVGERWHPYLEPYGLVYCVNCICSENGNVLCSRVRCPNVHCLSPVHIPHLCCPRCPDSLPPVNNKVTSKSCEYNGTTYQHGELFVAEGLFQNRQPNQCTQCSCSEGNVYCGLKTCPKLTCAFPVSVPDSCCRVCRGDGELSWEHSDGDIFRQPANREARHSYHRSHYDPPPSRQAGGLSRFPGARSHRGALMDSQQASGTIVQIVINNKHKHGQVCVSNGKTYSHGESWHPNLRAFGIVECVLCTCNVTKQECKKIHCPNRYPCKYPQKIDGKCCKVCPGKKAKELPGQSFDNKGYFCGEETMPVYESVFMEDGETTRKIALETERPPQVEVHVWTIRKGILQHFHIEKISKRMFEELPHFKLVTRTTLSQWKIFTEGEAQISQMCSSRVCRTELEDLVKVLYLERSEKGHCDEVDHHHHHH
Method: Binding of the various anti-CHRDL-1 antibodies to huCHRDL-1-DEVD-6xHis was performed using KinExA technology. The huCHRDL-1 protein was coated onto Reacti-Gel™ 6X (Pierce Biotechnology, Inc., Rockford, Ill.) agarose beads at a concentration of 50 ug protein/mL of beads in 50 mM Na₂CO₃ pH 9.6 for approximately 18 hours at 4° C. The coated beads were then blocked with 1 mg/mL BSA (Sigma-Aldrich, St. Louis, Mo.) in 1 M Tris-HCl, pH 7.5 for 2 hours at 4° C. Antibodies at fixed concentrations were mixed with varying concentrations of huCHRDL-1 in PBS containing 0.1 mg/mL BSA and 0.005% polysorbate 20 (P-20, BIAcore, Inc., Piscataway, N.J.) for at least 12 hours at room temperature. Antibody concentrations were 10 pM, 30 pM, 100 pM and/or 300 pM as appropriate. […] Antibody bound to the beads was quantified using fluorescent DyLight 649-conjugated goat anti-murine IgG (H+L) antibody (Jackson ImmunoResearch, West Grove, Pa.) at 1 ug/mL in Super Block (Pierce Biotechnology, Inc., Rockford, Ill.) for the mouse antibodies, or using AlexaFluor™ 647-conjugated goat anti-human IgG (H+L) at 1 ug/mL for the humanized antibody. […] The dissociation equilibrium constant (KD) can be determined from nonlinear regression analysis of the competition curves using a multiple curve one-site homogeneous binding model provided in the KinExA Pro software (Sapidyne Instruments, Inc., Boise, Id.).

Chain of Human BMP4 (R&D Systems cat#314-BP) (human) (P12644 293-408 limits assumed): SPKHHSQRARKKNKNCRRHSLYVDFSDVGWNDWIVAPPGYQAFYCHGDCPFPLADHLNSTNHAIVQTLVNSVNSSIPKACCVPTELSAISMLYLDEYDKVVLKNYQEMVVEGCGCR

RLU mean, BRE-luciferase reporter in MC3T3-E1-BRE-Luc cells stimulated with BMP4 (TSG present) [1]: 254 RLU
reduction of RLU mean, BRE-luciferase reporter in MC3T3-E1-BRE-Luc cells stimulated with BMP4 (TSG present) [1]: 55%
Molecule: muCHRDL-1-DEVD-6xHis (from UniProt Q920C1 23-447)

RLU mean, BRE-luciferase reporter in MC3T3-E1-BRE-Luc cells stimulated with BMP4 (TSG present) [1]: 62 RLU
reduction of RLU mean, BRE-luciferase reporter in MC3T3-E1-BRE-Luc cells stimulated with BMP4 (TSG present) [1]: 89%
Molecule: Recombinant human CHRDL-1 (R&D Systems cat#1808-NR), Glu22-Cys450 with C-terminal 10xHis tag (from UniProt Q9BU40 28-456)

Kd [2]: 0.142 nM
B1: huz-LC2G2.2_LC/huz-bmHC2G2.2_eflsIgG1 (antibody, V domains shown)
VH: QVQLVQSGAEVKKPGASVKVSCKASGYTFTSYWMHWVRQAPGQGLERMGNINPSNGGTNYNEKFKSRVTMTVDKSSSTAYMELSSLRSEDTAVYYCARSKNNYVAYYFDYWGQGTLVTVSS
VL: DIQMTQSPSSLSASVGDRVTITCRASENIYYSLAWYQQKPGKAPKLLIYNANSLEDGVPSRFSGSGSGTDFTLTISSLQPEDFATYYCKQAYDVPLTFGQGTKLEIKR
notes: also called huz-2G2.2-A; Huz-2G2.2-A

— patent US20140271629A1 (Amgen, published 2014)
